{"source": "patent US7038022", "about": "“Multimeric forms of members of the steroid/thyroid superfamily of receptors” (The Salk Institute for Biological Studies)", "binders": {"B1": {"name": "COUP-TF RE (ovalbumin) (dsDNA)", "DNA 1": "AGCTTGGTGTCAAAGGTCAAACTTAGCT", "DNA 2": "AGCTAAGTTTGACCTTTGACACCAAGCT"}, "B2": {"name": "chicken ovalbumin upstream promotor transcription factor (COUP-TF; EAR-3) (receptor, UniProt P10589 1-423, looked up)", "chain": "MAMVVSSWRDPQDDVAGGNPGGPNPAAQAARGGGGGAGEQQQQAGSGAPHTPQTPGQPGAPATPGTAGDKGQGPPGSGQSQQHIECVVCGDKSSGKHYGQFTCEGCKSFFKRSVRRNLTYTCRANRNCPIDQHHRNQCQYCRLKKCLKVGMRREAVQRGRMPPTQPNPGQYALTNGDPLNGHCYLSGYISLLLRAEPYPTSRYGSQCMQPNNIMGIENICELAARLLFSAVEWARNIPFFPDLQITDQVSLLRLTWSELFVLNAAQCSMPLHVAPLLAAAGLHASPMSADRVVAFMDHIRIFQEQVEKLKALHVDSAEYSCLKAIVLFTSDACGLSDAAHIESLQEKSQCALEEYVRSQYPNQPSRFGKLLLRLPSLRTVSSSVIEQLFFVRLVGKTPIETLIRDMLLSGSSFNWPYMSIQCS", "notes": "mature; Partially purified bacterial protein in the gel shifts; also called bacterially-expressed COUP-TF; RS-COUP-TF product"}, "B3": {"name": "CRBPII-RXRE (dsDNA)", "DNA 1": "AGCTGTCACAGGTCACAGGTCACAGGTCACAGTTCAAGCT", "DNA 2": "AGCTTGAACTGTGACCTGTGACCTGTGACCTGTGACAGCT"}, "B4": {"name": "DR-1 (dsDNA)", "DNA 1": "AGCTTCAGGTCAGAGGTCAGAGAGCT", "DNA 2": "AGCTCTCTGACCTCTGACCTGAAGCT"}, "B5": {"name": "hRXRα expressed in cells from RS-hRXRα (receptor, human, UniProt P19793 1-462, looked up)", "chain": "MDTKHFLPLDFSTQVNSSLTSPTGRGSMAAPSLHPSLGPGIGSPGQLHSPISTLSSPINGMGPPFSVISSPMGPHSMSVPTTPTLGFSTGSPQLSSPMNPVSSSEDIKPPLGLNGVLKVPAHPSGNMASFTKHICAICGDRSSGKHYGVYSCEGCKGFFKRTVRKDLTYTCRDNKDCLIDKRQRNRCQYCRYQKCLAMGMKREAVQEERQRGKDRNENEVESTSSANEDMPVERILEAELAVEPKTETYVEANMGLNPSSPNDPVTNICQAADKQLFTLVEWAKRIPHFSELPLDDQVILLRAGWNELLIASFSHRSIAVKDGILLATGLHVHRNSAHSAGVGAIFDRVLTELVSKMRDMQMDKTELGCLRAIVLFNPDSKGLSNPAEVEALREKVYASLEAYCKHKYPEQPGRFAKLLLRLPALRSIGLKCLEHLFFFKLIGDTPIDTFLMEMLEAPHQMT", "notes": "Intracellular expression; whole cell extracts in the Cos cell gel shifts; also called RS-hRXRa"}, "B6": {"name": "RXR-glutathione-S-transferase fusion protein (hRXRα expressed in bacteria as a fusion with glutathione-S-transferase, pGEX-2T) (receptor, human, UniProt P19793 1-462, looked up)", "chain": "B5 chain", "notes": "GST placed N-terminal as in pGEX-2T vectors; also called RXR-GST; GST-RXR; not shown: glutathione-S-transferase encoded by the pGEX-2T expression vector"}, "B7": {"name": "βRARE (dsDNA)", "DNA 1": "AGCTTAAGGGTTCACCGAAAGTTCACTCGCATAGCTGCT", "DNA 2": "AGCAGCTATGCGAGTGAACTTTCGGTGAACCCTTAAGCT"}}, "key": {"[1]": {"target": "T1, COUP-TF/RXRalpha heterodimer (UniProt P10589;P19793 P10589:1-423,P19793:1-462)", "experiment": "EMSA; supershift data similar to DR-1", "details": "tags: RXR as GST fusion; label: 32P"}, "[2]": {"target": "the molecule itself", "experiment": "gel mobility shift, 32P-labeled DR-1 probe"}, "[3]": {"target": "T2, RAR/RXR heterodimer (UniProt P10276;P19793 P10276:1-462,P19793:1-462)", "experiment": "EMSA; high affinity; 10-fold excess of unlabeled site competes", "details": "label: 32P"}, "[4]": {"target": "T3, COUP-TF (EAR-3) (UniProt P10589 P10589:1-423)", "T3 sequence": "B2 chain", "experiment": "EMSA; COUP-TF-specific complex, 500 ng protein", "details": "tags: none, pET-8C bacterial expression, partially purified; label: 32P", "experimental": "(§1) Bacterial-expressed COUP-TF and RXR-glutathione-S-transferase fusion protein (RXR-GST) were mixed and the resulting complexes analyzed by gel mobility shift assays using ^32P-labeled DR-1 oligonucleotide (i e., SEQ ID No. 21) as probe. The larger RXR fusion protein was used in order to maximize the migratory differences observed between the COUP-TF and RXR complexes.\n(§2) Gel mobility shift assays were performed using ^32P-labeled DR-1 oligonucleotide (SEQ ID No. 21) in the presence of partially-purified COUP-TF (500 ng) and increasing amounts of partially-purified RXR (1×–50 ng) as indicated in FIG. 1. Either 0.3 μl or 1 μl of RXR-specific antiserum was included in the assays (shown in lanes 11 and 12, respectively). The positions of the RXR-specific and COUP-TF-specific complexes are indicated in FIG. 1 by a plain line (\"–\"). […] The free probe was run off the gel and is not shown."}, "[5]": {"target": "T1, COUP-TF/RXRalpha heterodimer", "experiment": "EMSA; heterodimer favored over homodimers; supershifted by RXR antiserum", "details": "tags: RXR as GST fusion; label: 32P", "experimental": "as §1, §2"}, "[6]": {"target": "T4, hRARα expressed in cells from RS-hRARα (human, UniProt P10276 1-462)", "T4 construct": "Intracellular expression; whole cell extracts in the Cos cell gel shifts; also called RS-hRARa; RS-RARα", "T4 sequence (looked up)": "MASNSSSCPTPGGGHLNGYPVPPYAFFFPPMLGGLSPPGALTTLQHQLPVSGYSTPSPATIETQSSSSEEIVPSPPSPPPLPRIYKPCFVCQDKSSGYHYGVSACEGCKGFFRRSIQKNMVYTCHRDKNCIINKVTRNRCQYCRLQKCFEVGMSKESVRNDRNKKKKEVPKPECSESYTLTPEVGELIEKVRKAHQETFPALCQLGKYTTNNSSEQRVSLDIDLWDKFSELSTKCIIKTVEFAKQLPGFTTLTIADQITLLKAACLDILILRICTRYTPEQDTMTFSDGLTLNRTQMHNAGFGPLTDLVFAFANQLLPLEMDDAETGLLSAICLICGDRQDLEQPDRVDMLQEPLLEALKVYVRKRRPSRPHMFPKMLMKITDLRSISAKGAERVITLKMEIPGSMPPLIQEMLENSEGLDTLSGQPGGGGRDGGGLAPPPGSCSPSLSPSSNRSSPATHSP", "experiment": "gel mobility shift, βRARE probe, whole-cell extracts of transfected Cos cells", "experimental": "DNA-protein complexes were resolved on a 4% polyacrylamide gel in 0.5×TBE (1×TBE=90 mM Tris, 90 mM boric acid, 2 mM EDTA)."}, "[7]": {"target": "T2, RAR/RXR heterodimer", "experiment": "EMSA; high affinity; also competes for CRBPII-RXRE binding", "details": "label: 32P"}}}
{"binder": "B1", "values": [{"measurement": "binding result", "setting": "[1]", "result": "binds"}]}
{"binder": "B2", "values": [{"measurement": "binding result", "setting": "[2]", "result": "binds"}]}
{"binder": "B3", "values": [{"measurement": "binding result", "setting": "[3]", "result": "binds"}]}
{"binder": "B4", "values": [{"measurement": "binding result", "setting": "[4]", "result": "binds"}, {"measurement": "binding result", "setting": "[5]", "result": "binds"}]}
{"binder": "B5", "values": [{"measurement": "binding result", "setting": "[6]", "result": "binds"}]}
{"binder": "B6", "values": [{"measurement": "binding result", "setting": "[2]", "result": "binds"}]}
{"binder": "B7", "values": [{"measurement": "binding result", "setting": "[7]", "result": "binds"}]}
